Biological target: T1, spike protein of alphacoronavirus NL63-CoV (HCoV-NL63, UniProt Q6Q1S2 16-1291)
T1 sequence: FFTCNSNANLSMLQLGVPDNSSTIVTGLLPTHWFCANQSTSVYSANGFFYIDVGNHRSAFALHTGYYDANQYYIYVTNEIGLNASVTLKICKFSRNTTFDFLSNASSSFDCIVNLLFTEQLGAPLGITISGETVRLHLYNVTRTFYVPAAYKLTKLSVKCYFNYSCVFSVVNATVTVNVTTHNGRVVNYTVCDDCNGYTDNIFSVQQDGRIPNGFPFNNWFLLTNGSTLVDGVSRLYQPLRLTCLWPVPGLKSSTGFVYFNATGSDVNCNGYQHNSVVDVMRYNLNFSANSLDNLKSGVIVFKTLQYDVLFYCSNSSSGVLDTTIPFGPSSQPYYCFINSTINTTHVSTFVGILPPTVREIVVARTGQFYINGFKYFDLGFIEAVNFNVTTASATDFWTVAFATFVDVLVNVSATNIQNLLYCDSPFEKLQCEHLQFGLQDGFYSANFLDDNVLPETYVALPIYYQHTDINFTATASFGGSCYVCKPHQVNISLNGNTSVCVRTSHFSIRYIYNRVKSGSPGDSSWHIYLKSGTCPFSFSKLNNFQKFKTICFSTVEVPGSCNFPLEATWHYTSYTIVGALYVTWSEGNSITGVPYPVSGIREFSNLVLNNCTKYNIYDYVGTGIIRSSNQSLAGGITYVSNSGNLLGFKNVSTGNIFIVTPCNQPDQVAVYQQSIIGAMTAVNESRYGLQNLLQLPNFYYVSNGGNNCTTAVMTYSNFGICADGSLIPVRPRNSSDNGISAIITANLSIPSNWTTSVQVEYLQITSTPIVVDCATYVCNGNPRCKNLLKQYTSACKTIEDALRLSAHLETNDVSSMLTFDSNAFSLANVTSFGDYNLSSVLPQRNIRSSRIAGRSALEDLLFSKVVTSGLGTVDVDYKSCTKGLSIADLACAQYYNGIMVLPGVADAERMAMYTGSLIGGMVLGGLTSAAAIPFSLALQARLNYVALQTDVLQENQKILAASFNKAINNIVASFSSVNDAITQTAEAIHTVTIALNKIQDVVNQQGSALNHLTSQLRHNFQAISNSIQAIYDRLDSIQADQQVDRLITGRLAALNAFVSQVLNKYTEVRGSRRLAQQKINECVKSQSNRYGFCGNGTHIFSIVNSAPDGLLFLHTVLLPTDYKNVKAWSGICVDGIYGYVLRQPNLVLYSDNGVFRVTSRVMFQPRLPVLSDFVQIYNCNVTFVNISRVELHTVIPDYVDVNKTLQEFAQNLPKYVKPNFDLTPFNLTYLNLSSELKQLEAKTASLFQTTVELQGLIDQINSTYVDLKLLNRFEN
Assay: ELISA on alphacoronavirus spike proteins (Fig 37)

B1: antibody S2P6 (antibody 420 1 1), human monoclonal antibody expressed as recombinant human IgG1 (antibody, V domains shown)
VH: EVQLVQSGAEVKKPGASVKVSCKASGYTFTSQYMHWVRQAPGQGLEWIGIINPSGVHTSYAQKFQGRVTLTRDTSTSTLYMELSSLRSEDTAVYYCARGSPKGAFDYWGQGTLVTVSS
VL: not shown
B1: no binding.

Reference: patent JP2023550785A (dated 2023)
